From patent publication US20250188154A1
Where two headings read alike, the source gives them in different places.

Legend:
[1] = molecular target: SARS-CoV-2 Spike-2P stabilized S ectodomain trimer (SARS-CoV-2) (UniProt P0DTC2)
[2] = molecular target: SARS-CoV-2 Spike-2P stabilized S ectodomain trimer (SARS-CoV-2) (UniProt P0DTC2); experiment: ACE2 blocking, ELISA-based assay (Genscript)
[3] = molecular target: SARS-CoV-2 spike on live virus (Isolate USA-WA1/2020) (SARS-CoV-2) (UniProt P0DTC2); experiment: cell-based or functional assay
[4] = molecular target: SARS-CoV-2 B.1.1.7 live virus spike (SARS-CoV-2) (UniProt P0DTC2); experiment: cell-based or functional assay
[5] = molecular target: SARS-CoV-2 B.1.351 live virus spike (SARS-CoV-2) (UniProt P0DTC2); experiment: cell-based or functional assay
[6] = molecular target: SARS-CoV-2 2AA MA virus spike (SARS-CoV-2) (UniProt P0DTC2); experiment: cell-based or functional assay

Substance	IC50 [1] [µg/mL]	IC80 [1] [µg/mL]	IC50 [2] [µg/mL]	Bioqual PRNT IC50 [3] [µg/mL]	Bioqual PRNT IC90 [3] [µg/mL]	Duke RBL PRNT IC50 [3] [µg/mL]	Duke RBL PRNT IC90 [3] [µg/mL]	SARS-CoV-2 neutralization IC50 [3] [µg/mL]	SARS-CoV-2 neutralization IC80 [3] [µg/mL]	SARS-CoV-2 neutralization IC90 [3] [µg/mL]	SARS-CoV-2 neutralization Minimal Effective conc. [3] [µg/mL]	live virus neutralization IC50 [4] [µg/mL]	live virus neutralization IC50 [5] [µg/mL]	live virus neutralization IC50 [6] [µg/mL]
DH1042 (antibody)	< 0.2	0.371	< 0.2	0.156	0.625	0.073	0.625	0.071	0.269	0.578	0.28	–	–	–
DH1047 (antibody)	0.078	0.567	–	–	–	–	–	0.124	0.666	1.77	1.1	0.081	0.111	0.397
